Reference: patent publication US8541175B2, “Detection of molecular interactions using a reduced affinity enzyme complementation reporter system” (The Board of Trustees of the Leland Stanford Junior …, priority 2006, dated 2013)

Experiments:
Format in all cases: cell-based
EGFR and ErbB2 = EGFR and ErbB2 (Homo sapiens, UniProt P04626); experiment: Low affinity β-gal complementation, EGFR-ErbB2 heterodimerization; conditions: for loss of β-gal activity (heterodimer dissociation) after removal of ligand: EGFRω-ErbB2α* cells, ligand added, then washout
From the text: To perform a quantitative comparison of the different pairs of receptors, receptor expression level in cells was controlled, as the amount of β-gal fusion protein affects β-gal enzyme activity (FIG. 2). […] These cells were engineered to express either the ErbB2-ω or the EGFR-ω fusion proteins. Each of the ω-expressing parental cell lines were then split and transduced with each of three constructs encoding different α-fusion proteins, EGFR-α*, ErbB2-α*, and ErbB3-α*. Because the cells were generated from the same parental line, they expressed equivalent amounts of ω. To allow measurement of α* chimeric protein expression levels, YFP was included in each construct, between the ErbB receptor and the α*.

[1] = target: EGFR homodimers in the presence of excess ErbB2 (Homo sapiens, UniProt P04626); experiment: EGFR homodimerization in EGFRα*-EGFRω cell line overexpressing wild-type ErbB2; conditions: EGFRα*-EGFRω cells overexpressing wild-type ErbB2; increasing concentrations of EGF
From the text: As a test of this hypothesis, the wildtype ErbB2 lacking a β-gal fragment was overexpressed in the EGFRα*-EGFRω cell line. […] This disruption allowed EGFRα* and EGFRω to interact and homodimerize.

ErbB2 homodimers = target: T1, ErbB2 homodimers (Homo sapiens, UniProt P04626); experiment: Low affinity β-gal complementation, ErbB2ω-ErbB2α* homodimerization; conditions: ligand for 45 min; 20,000 cells per well
T1 construct: ErbB2 (aa 1-686); expressed in transfected cells; host or cells: C2C12 cells, retroviral transduction
From the text: To perform a quantitative comparison of the different pairs of receptors, receptor expression level in cells was controlled, as the amount of β-gal fusion protein affects β-gal enzyme activity (FIG. 2). To this end, two parental cell lines were constructed using C2C12 cells in which ErbB family members are expressed at very low levels (S. Corti et al., Exp Cell Res 268, 36 (Aug. 1, 2001)). These cells were engineered to express either the ErbB2-ω or the EGFR-ω fusion proteins. Each of the ω-expressing parental cell lines were then split and transduced with each of three constructs encoding different α-fusion proteins, EGFR-α*, ErbB2-α*, and ErbB3-α*. Because the cells were generated from the same parental line, they expressed equivalent amounts of ω. To allow measurement of α* chimeric protein expression levels, YFP was included in each construct, between the ErbB receptor and the α*. […] YFP was imaged by confocal microscopy to ensure that the receptor fusion proteins were appropriately localized to the plasma membrane, which is essential to their function (FIG. 3).
Cells were returned to a 37° C.
Isoproterenol, propranolol and rapamycin were from Sigma.

Question: “TGF-α: recombinant human TGF-α from Peprotech, EGFR ligand” was tested. Which “loss of β-gal activity (heterodimer dissociation) after removal of ligand” value (EGFR and ErbB2) did it give?
Answer: The value was “signal decayed more rapidly following TGF-α than after EGF exposure”.

Question: With “EGF: recombinant human EGF from Peprotech, ligand that binds the EGFR” as the substance, how does the “β-gal activity in response to EGF, no antibody” value [1] read?
Answer: The value was “failed to stimulate β-gal activity”.

Question: And the “response of ErbB2ω-ErbB2α* cells to ligand (β-gal activity)” value (ErbB2 homodimers)?
Answer: The value was “not responsive”.

Question: And the “EGFRω-ErbB2α* heterodimer formation over time (enzyme activity)” value (EGFR and ErbB2; 100 ng/ml EGF)?
Answer: Its value is “time-dependent increase in enzyme activity”.

Question: What about the “loss of β-gal activity (heterodimer dissociation) after removal of ligand” value (EGFR and ErbB2) of the same substance?
Answer: The value was “β-gal activity decreased over time”.

Question: And the “ligand-induced heterodimerization of EGFR with ErbB2 (β-gal activity)” value (EGFR and ErbB2; ligand for 45 min, 20,000 cells per well)?
Answer: The value was “heterodimerization of EGFR with ErbB2”.
